The nature of this data set: DTNB assay of reduction state (free SH groups). It counts as physicochemical. As to conditions: for % reduced (68 hrs): 25° C., red fraction removed. The procedure:
Functional assays 1. Reduction state of ORP100S was quantified using DTNB which reacts with free SH groups resulting in a yellow color change at 412 nm. Fifty microliters of 2.5 mM rhTrx was added to a 96-well plate, followed by 175 microliters of sample buffer and 25 microliters of 6 mM DTNB. After reactions were initiated by the addition of DTNB, change in kinetic absorbance at 412 nm due to DTNB reduction was monitored spectrophotometrically at 30° C. ORP100S concentration was determined by A280 (Nanodrop) using the extinction coefficient of human Trx-1 (7,000). The actual concentrations of free sulfhydryl groups were calculated based on the absorbance at 412 nm and the extinction coefficient of DTNB (14,150) in order to determine the reduction state as percentage of free sulfhydryl. […] 2. Percent of free monomer ORP100S in solution was determined using SEC. Samples were analyzed on a BioBasic S-300 250×4.6 column (Thermo Scientific) run on an Agilent 1100 HPLC system. The SEC-HPLC mobile phase buffer consisted of 40 mM ammonium acetate (pH 5.5), 2 mM EDTA and 450 mM NaCl. Low pH minimized dimerization while the 450 mM NaCl concentration improved resolution. The flow rate was 0.35 mL/min and absorbance was monitored at 280 nm. The length of each run was 20 minutes. The ORP100S monomer percentage was determined by integration of the area under the peak of the monomeric fraction divided by the total area under the curve of the chromatogram. 3. Disulfide bond reduction activity of ORP100S was quantified by assaying the reduction state of a small protein (human insulin) which in its heterodimeric form contains two intermolecular and one intramolecular disulfide, all three of which are known to be suitable thioredoxin substrates. Insulin reduction has classically been used to quantify thioredoxin activity by absorbance change following addition of NADPH and TrxR (Holmgren A., 1979, Thioredoxin catalyzes the reduction of insulin disulfides by dithiothreitol and dihydrolipoamide, J Biol Chem 254:9627-32). Such an approach is not suitable for monothiol C35S thioredoxins ORP-100 and ORP100S due to 1) the lack of cycling resulting from stoichiometric covalent linkage to the disulfide bond substrate and 2) the inability of NADPH and TrxR to reduce Cys32 of the oxidized monothiol Trx active site. Consequently, a new assay was developed based on the use of reverse-phase (RP) HPLC to monitor the rate of conversion of disulfide-bonded insulin heterodimers to monomeric forms. The two chains of human insulin have a total of six Cys residues which form three disulfide bonds in its mature structure. When ORP100S in the reduced form is incubated with dimeric insulin it reacts with these disulfide bonds to disrupt them, simultaneously forming covalent linkages to the ORP100S Cys32. […] The ORP100S samples were incubated with 10 mg/mL insulin for various time points (0-90 min) and the reactions were stopped by addition of iodacetic acid (IA) and trifluoroacetic acid (TFA). Relative activity at each time point was determined from changes in the area under the insulin heterodimer peak following separation over RP-HPLC (Agilent 1100) using an Intrada WP-RP 50×3 (Imtakt) column. Buffer A was 0.1% TFA and Buffer B was 0.1% TFA in acetonitrile. The gradient was […] in 5 min followed by 30 to 60% B in 45 min, then 60 to 80% B for an additional 5 min. The flow rate was 0.2 mL/min and absorbance was measured at 280 nm. In order to evaluate the change in the intact insulin molecule a time 0 baseline was first established using 1 M IA and 0.1% TFA without the addition of ORP100S. The area under the intact insulin heterodimer peak was then determined and set as equivalent to 100%. After the reaction with ORP100S the area of the intact insulin peak (corresponding to retention time) was measured. The percent reduction in intact insulin was then calculated from the decrease in the area following reduction divided by the area at time 0 multiplied by 100.

B1: ORP100S: thioredoxin with monothiol active site, Cys35 and non-active Cys 62, 69 and 73 substituted with serine (SEQ ID NO:29) (protein)
chain: MVKQIESKTAFQEALDAAGDKLVVVDFSATWCGPSKMIKPFFHSLSEKYSNVIFLEVDVDDSQDVASESEVKSMPTFQFFKKGQKVGEFSGANKEKLEATINELV
modifications: synthetic peptide motif
In the case of B1, the “% reduced (68 hrs)” value was 109% (70 mg/mL in PBS); 87% (80 mg/mL in PBS); 91% (90 mg/mL in PBS); 91% (100 mg/mL in PBS); 102% (110 mg/mL in PBS). The DTNB % reduced is, setting by setting: (Ox:Red 0:100 mixture) 86%; (Ox:Red 25:75 mixture) 73%; (Ox:Red 50:50 mixture) 55%; (Ox:Red 75:25 mixture) 49%; (Ox:Red 100:0 mixture) 22%.

For the origin of these results see patent US20230071765A1, “COMPOSITIONS HAVING THIOREDOXIN ACTIVITY AND RELATED METHODS” (ORPRO THERAPEUTICS, INC., priority 2020, published 2023).
